From the Human Domainome abundance scans (Beltran et al. 2025)
± gives the uncertainty stated by the source.

assay: abundance fitness (aPCA) (normalised: wild type 0, dead -1); higher = more abundant; growth selection in yeast, the domain comes from the species named; conditions: Homo sapiens

Row | Substance | abundance fitness
1 | E3 ubiquitin-protein ligase NEDD4-like P224H, Q96PU5 | -0.694 ± 0.17
2 | E3 ubiquitin-protein ligase NEDD4-like P224I, Q96PU5 | -0.877 ± 0.18
3 | E3 ubiquitin-protein ligase NEDD4-like P224K, Q96PU5 | -0.552 ± 0.089
4 | E3 ubiquitin-protein ligase NEDD4-like P224L, Q96PU5 | -0.93 ± 0.06
5 | E3 ubiquitin-protein ligase NEDD4-like P224M, Q96PU5 | -0.796 ± 0.11
6 | E3 ubiquitin-protein ligase NEDD4-like P224N, Q96PU5 | -1.15 ± 0.18
7 | E3 ubiquitin-protein ligase NEDD4-like P224R, Q96PU5 | -0.94 ± 0.056
8 | E3 ubiquitin-protein ligase NEDD4-like P224S, Q96PU5 | -0.711 ± 0.059
9 | E3 ubiquitin-protein ligase NEDD4-like P224T, Q96PU5 | -0.828 ± 0.11
10 | E3 ubiquitin-protein ligase NEDD4-like P224V, Q96PU5 | -1.01 ± 0.086
11 | E3 ubiquitin-protein ligase NEDD4-like P224Y, Q96PU5 | -1.18 ± 0.095
12 | E3 ubiquitin-protein ligase NEDD4-like Q185C, Q96PU5 | -0.793 ± 0.065
13 | E3 ubiquitin-protein ligase NEDD4-like Q185D, Q96PU5 | -0.097 ± 0.1
14 | E3 ubiquitin-protein ligase NEDD4-like Q185E, Q96PU5 | -0.534 ± 0.097
15 | E3 ubiquitin-protein ligase NEDD4-like Q185F, Q96PU5 | -0.257 ± 0.12
16 | E3 ubiquitin-protein ligase NEDD4-like Q185G, Q96PU5 | -0.723 ± 0.058
17 | E3 ubiquitin-protein ligase NEDD4-like Q185H, Q96PU5 | -0.034 ± 0.081
18 | E3 ubiquitin-protein ligase NEDD4-like Q185I, Q96PU5 | -0.038 ± 0.11
19 | E3 ubiquitin-protein ligase NEDD4-like Q185K, Q96PU5 | -0.398 ± 0.12
20 | E3 ubiquitin-protein ligase NEDD4-like Q185L, Q96PU5 | -0.542 ± 0.081
21 | E3 ubiquitin-protein ligase NEDD4-like Q185N, Q96PU5 | 0.154 ± 0.12
22 | E3 ubiquitin-protein ligase NEDD4-like Q185P, Q96PU5 | -0.539 ± 0.12
23 | E3 ubiquitin-protein ligase NEDD4-like Q185R, Q96PU5 | -0.633 ± 0.068
24 | E3 ubiquitin-protein ligase NEDD4-like Q185S, Q96PU5 | -1.18 ± 0.15

Row | Substance | abundance fitness
25 | E3 ubiquitin-protein ligase NEDD4-like Q185T, Q96PU5 | -0.143 ± 0.1
26 | E3 ubiquitin-protein ligase NEDD4-like Q185V, Q96PU5 | -0.332 ± 0.075
27 | E3 ubiquitin-protein ligase NEDD4-like Q185Y, Q96PU5 | 0.011 ± 0.11
28 | E3 ubiquitin-protein ligase NEDD4-like Q187A, Q96PU5 | -0.256 ± 0.058
29 | E3 ubiquitin-protein ligase NEDD4-like Q187D, Q96PU5 | -0.167 ± 0.097
30 | E3 ubiquitin-protein ligase NEDD4-like Q187E, Q96PU5 | -0.767 ± 0.079
31 | E3 ubiquitin-protein ligase NEDD4-like Q187F, Q96PU5 | 0.041 ± 0.07
32 | E3 ubiquitin-protein ligase NEDD4-like Q187G, Q96PU5 | -0.799 ± 0.07
33 | E3 ubiquitin-protein ligase NEDD4-like Q187I, Q96PU5 | -0.247 ± 0.11
34 | E3 ubiquitin-protein ligase NEDD4-like Q187K, Q96PU5 | 0.243 ± 0.087
35 | E3 ubiquitin-protein ligase NEDD4-like Q187L, Q96PU5 | -0.287 ± 0.071
36 | E3 ubiquitin-protein ligase NEDD4-like Q187M, Q96PU5 | -0.069 ± 0.092
37 | E3 ubiquitin-protein ligase NEDD4-like Q187N, Q96PU5 | -0.001 ± 0.072
38 | E3 ubiquitin-protein ligase NEDD4-like Q187R, Q96PU5 | -0.298 ± 0.066
39 | E3 ubiquitin-protein ligase NEDD4-like Q187S, Q96PU5 | -0.242 ± 0.073
40 | E3 ubiquitin-protein ligase NEDD4-like Q187T, Q96PU5 | 0.016 ± 0.09
41 | E3 ubiquitin-protein ligase NEDD4-like Q187V, Q96PU5 | -0.233 ± 0.06
42 | E3 ubiquitin-protein ligase NEDD4-like Q187W, Q96PU5 | -0.907 ± 0.073
43 | E3 ubiquitin-protein ligase NEDD4-like Q187Y, Q96PU5 | 0.031 ± 0.1
44 | E3 ubiquitin-protein ligase NEDD4-like Q220A, Q96PU5 | -0.096 ± 0.057
45 | E3 ubiquitin-protein ligase NEDD4-like Q220C, Q96PU5 | -0.06 ± 0.071
46 | E3 ubiquitin-protein ligase NEDD4-like Q220D, Q96PU5 | -0.258 ± 0.088
47 | E3 ubiquitin-protein ligase NEDD4-like Q220E, Q96PU5 | -0.555 ± 0.084
48 | E3 ubiquitin-protein ligase NEDD4-like Q220F, Q96PU5 | -0.618 ± 0.12

Row | Substance | abundance fitness
49 | E3 ubiquitin-protein ligase NEDD4-like Q220G, Q96PU5 | -0.548 ± 0.071
50 | E3 ubiquitin-protein ligase NEDD4-like Q220H, Q96PU5 | -0.775 ± 0.17
51 | E3 ubiquitin-protein ligase NEDD4-like Q220I, Q96PU5 | -0.371 ± 0.12
52 | E3 ubiquitin-protein ligase NEDD4-like Q220K, Q96PU5 | -0.757 ± 0.12
53 | E3 ubiquitin-protein ligase NEDD4-like Q220M, Q96PU5 | -0.362 ± 0.093
54 | E3 ubiquitin-protein ligase NEDD4-like Q220N, Q96PU5 | -0.354 ± 0.071
55 | E3 ubiquitin-protein ligase NEDD4-like Q220P, Q96PU5 | -0.9 ± 0.078
56 | E3 ubiquitin-protein ligase NEDD4-like Q220R, Q96PU5 | -0.557 ± 0.072
57 | E3 ubiquitin-protein ligase NEDD4-like Q220S, Q96PU5 | 0.184 ± 0.065
58 | E3 ubiquitin-protein ligase NEDD4-like Q220T, Q96PU5 | 0.163 ± 0.077
59 | E3 ubiquitin-protein ligase NEDD4-like Q220V, Q96PU5 | -0.242 ± 0.06
60 | E3 ubiquitin-protein ligase NEDD4-like Q220Y, Q96PU5 | -0.692 ± 0.096
61 | E3 ubiquitin-protein ligase NEDD4-like R208A, Q96PU5 | 0.036 ± 0.062
62 | E3 ubiquitin-protein ligase NEDD4-like R208C, Q96PU5 | 0.06 ± 0.062
63 | E3 ubiquitin-protein ligase NEDD4-like R208D, Q96PU5 | 0.067 ± 0.098
64 | E3 ubiquitin-protein ligase NEDD4-like R208E, Q96PU5 | 0.047 ± 0.083
65 | E3 ubiquitin-protein ligase NEDD4-like R208F, Q96PU5 | -0.289 ± 0.06
66 | E3 ubiquitin-protein ligase NEDD4-like R208G, Q96PU5 | -0.191 ± 0.06
67 | E3 ubiquitin-protein ligase NEDD4-like R208I, Q96PU5 | -0.504 ± 0.12
68 | E3 ubiquitin-protein ligase NEDD4-like R208K, Q96PU5 | -0.028 ± 0.079
69 | E3 ubiquitin-protein ligase NEDD4-like R208L, Q96PU5 | -0.128 ± 0.069
70 | E3 ubiquitin-protein ligase NEDD4-like R208M, Q96PU5 | -0.062 ± 0.078
71 | E3 ubiquitin-protein ligase NEDD4-like R208N, Q96PU5 | 0.225 ± 0.11
72 | E3 ubiquitin-protein ligase NEDD4-like R208P, Q96PU5 | -0.908 ± 0.099

Row | Substance | abundance fitness
73 | E3 ubiquitin-protein ligase NEDD4-like R208Q, Q96PU5 | 0.215 ± 0.09
74 | E3 ubiquitin-protein ligase NEDD4-like R208T, Q96PU5 | -0.005 ± 0.08
75 | E3 ubiquitin-protein ligase NEDD4-like R208W, Q96PU5 | -0.408 ± 0.083
76 | E3 ubiquitin-protein ligase NEDD4-like R208Y, Q96PU5 | -0.23 ± 0.11
77 | E3 ubiquitin-protein ligase NEDD4-like R217A, Q96PU5 | 0 ± 0.064
78 | E3 ubiquitin-protein ligase NEDD4-like R217C, Q96PU5 | -0.105 ± 0.081
79 | E3 ubiquitin-protein ligase NEDD4-like R217D, Q96PU5 | -0.042 ± 0.078
80 | E3 ubiquitin-protein ligase NEDD4-like R217E, Q96PU5 | -0.153 ± 0.085
81 | E3 ubiquitin-protein ligase NEDD4-like R217F, Q96PU5 | -0.011 ± 0.088
82 | E3 ubiquitin-protein ligase NEDD4-like R217G, Q96PU5 | -0.005 ± 0.054
83 | E3 ubiquitin-protein ligase NEDD4-like R217H, Q96PU5 | -1 ± 0.062
84 | E3 ubiquitin-protein ligase NEDD4-like R217I, Q96PU5 | -0.267 ± 0.084
85 | E3 ubiquitin-protein ligase NEDD4-like R217K, Q96PU5 | 0.087 ± 0.091
86 | E3 ubiquitin-protein ligase NEDD4-like R217L, Q96PU5 | -0.208 ± 0.06
87 | E3 ubiquitin-protein ligase NEDD4-like R217M, Q96PU5 | -0.239 ± 0.07
88 | E3 ubiquitin-protein ligase NEDD4-like R217N, Q96PU5 | 0.051 ± 0.089
89 | E3 ubiquitin-protein ligase NEDD4-like R217P, Q96PU5 | -0.267 ± 0.085
90 | E3 ubiquitin-protein ligase NEDD4-like R217Q, Q96PU5 | -0.016 ± 0.067
91 | E3 ubiquitin-protein ligase NEDD4-like R217T, Q96PU5 | -0.069 ± 0.081
92 | E3 ubiquitin-protein ligase NEDD4-like R217Y, Q96PU5 | -0.179 ± 0.084
93 | E3 ubiquitin-protein ligase NEDD4-like R223A, Q96PU5 | -0.175 ± 0.066
94 | E3 ubiquitin-protein ligase NEDD4-like R223C, Q96PU5 | -0.552 ± 0.09
95 | E3 ubiquitin-protein ligase NEDD4-like R223D, Q96PU5 | -0.481 ± 0.098
